Values quoted from earlier work as cited in publication PMC6997106.

Target: RAGE V-domain V-domain (Homo sapiens) (UniProt Q15109)
Assay: SPR

Sequence of RAGE V-domain V-domain (Homo sapiens) (Q15109 23-116): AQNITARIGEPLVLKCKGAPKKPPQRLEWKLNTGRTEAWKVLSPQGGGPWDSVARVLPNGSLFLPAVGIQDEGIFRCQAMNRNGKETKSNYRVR
Sequence of S100B (P04271 2-92): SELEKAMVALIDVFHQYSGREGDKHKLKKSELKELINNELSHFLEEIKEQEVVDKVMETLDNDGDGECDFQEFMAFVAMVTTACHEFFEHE

Kd: 500 nM
Substance: S100B (from UniProt P04271)
